This note sets out measurements from PMC3460868, “Crosstalk of Escherichia coli FadR with Global Regulators in Expression of Fatty Acid Transport Genes”.

Holding throughout (conditions): protein: recombinant; tags: His6 (pET28); chain copies: 2; label: DIG-ddUTP 3' (terminal transferase); blunt
One data set has as its target CRP (Escherichia coli, UniProt P0ACJ8 1-210). Nature of the data set: EMSA; cAMP (200 pmol in 20 ul); Roche binding buffer (composition not given), 15 min, room temperature; FadR: 0.1 pmol probe in 10 ul, 0-10 pmol protein, 7% native PAGE; CRP: 0.6 pmol probe in 20 ul (legend; Methods say 0.1 or 0.2 pmol), 5-20 pmol protein, 6.5% native PAGE.
For data set [1], the target named is T1, FadR (Escherichia coli, UniProt P0A8V6 1-239). Nature of the data set: EMSA; essentially complete binding by 50 nM FadR; Roche binding buffer (composition not given), 15 min, room temperature; FadR: 0.1 pmol probe in 10 ul, 0-10 pmol protein, 7% native PAGE; CRP: 0.6 pmol probe in 20 ul (legend; Methods say 0.1 or 0.2 pmol), 5-20 pmol protein, 6.5% native PAGE. (In EMSA bound probe runs differently from free probe, usually more slowly.)
T1 sequence (P0A8V6 whole entry): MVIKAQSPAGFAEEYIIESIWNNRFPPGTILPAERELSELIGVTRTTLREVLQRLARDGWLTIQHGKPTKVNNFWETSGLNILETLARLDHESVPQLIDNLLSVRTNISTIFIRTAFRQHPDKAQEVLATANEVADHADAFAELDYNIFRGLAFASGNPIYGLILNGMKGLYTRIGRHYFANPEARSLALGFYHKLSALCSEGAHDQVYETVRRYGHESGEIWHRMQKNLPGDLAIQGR

Data set [2] addresses T1, FadR. Nature of the data set: EMSA; affinity comparable to the fadL sites; Roche binding buffer (composition not given), 15 min, room temperature; FadR: 0.1 pmol probe in 10 ul, 0-10 pmol protein, 7% native PAGE; CRP: 0.6 pmol probe in 20 ul (legend; Methods say 0.1 or 0.2 pmol), 5-20 pmol protein, 6.5% native PAGE.

Sequence of CRP (P0ACJ8 whole entry): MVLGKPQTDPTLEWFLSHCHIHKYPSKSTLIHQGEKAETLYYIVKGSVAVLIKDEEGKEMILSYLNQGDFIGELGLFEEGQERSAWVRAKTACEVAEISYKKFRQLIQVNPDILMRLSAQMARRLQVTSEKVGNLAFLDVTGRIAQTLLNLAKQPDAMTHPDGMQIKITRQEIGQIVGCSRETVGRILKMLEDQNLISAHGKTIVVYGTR

B1: fadL CRP site 2 (probe 2) (dsDNA)
DNA 1: CCCTACACTTCGCGCTCCTGTTACAGCACGTAACATAGTTTGTATAAAAATAAATC
DNA 2: GATTTATTTTTATACAAACTATGTTACGTGCTGTAACAGGAGCGCGAAGTGTAGGG
As for B1, in the data set with CRP, the binding result is “no binding”.

B2: fadH CRP site 2 (probe 2) (dsDNA)
DNA 1: CACCGGGCGTATTCTTTTTGAATCCCATCACAAACCCCGCACTCC
DNA 2: GGAGTGCGGGGTTTGTGATGGGATTCAAAAAGAATACGCCCGGTG
B2: the binding result with CRP was “binds”.

B3: fadL FadR site 1 (dsDNA)
DNA 1: GCAACATTCCAGCTGGTCCGACCTATACTCTCGCC
DNA 2: GGCGAGAGTATAGGTCGGACCAGCTGGAATGTTGC
In the case of B3, in the data set with FadR [1], the binding result is given as “binds”.

B4: fadD CRP site (dsDNA)
DNA 1: GTAAAGATAAAAATAAATAGTGACGCGCTTCGCAACCTTTTCGTTGGG
DNA 2: CCCAACGAAAAGGTTGCGAAGCGCGTCACTATTTATTTTTATCTTTAC
Take B4: the binding result with CRP is on record as “binds”.

B5: fadD FadR site 1 (dsDNA)
DNA 1: GTAATTATCAAGCTGGTATGATGAGTTAATATTATG
DNA 2: CATAATATTAACTCATCATACCAGCTTGATAATTAC
Regarding B5, the binding result with FadR [2] was “binds”.

B6: fadL FadR site 2 (dsDNA)
DNA 1: CTCTCGCCACTGGTCTGATTTCTAAGATGTACCTC
DNA 2: GAGGTACATCTTAGAAATCAGACCAGTGGCGAGAG
Turning to B6, the binding result with FadR [1] is listed as “binds”.

B7: fadH CRP site 1 (probe 1) (dsDNA)
DNA 1: GTAACCTGGATAAAACGCGACAAGCGTCGCATCCGGCGTTATCACCGG
DNA 2: CCGGTGATAACGCCGGATGCGACGCTTGTCGCGTTTTATCCAGGTTAC
With B7, the binding result with CRP was “binds”.
